Assay results: the supplement of paper PMC12783771
± gives the standard deviation of the averaged measurements.

B1: library; a variant is named by its letters at X, in order (parent)
chain: MNIQIGELAKRTACPVVTIRFYEQEGLLPPPGRSRGNFRLYGEEHVERLQFIRHCRSLDMPLSXVRTLLSYRKRPDQDCGEVXMLLDEHIRQVESRIGALLELXHHXVELREACSGARPAQSCGILQXLSXCVCXTRGTTAHXSD

Key:
[1] = variants of: B1; experiment: sfGFP reporter fluorescence (15 h) (µM FITC); higher = higher leak; settings: library round: Round 3; ligand: none
Protocol: (§1)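 Cell-free biosensing: 1 µL Echo-assembled CFE reactions with linear PbrR variant templates (5 nM) and pPbrR-sfGFP reporter, with 1 µM Pb, 30 µM Zn or no ligand; endpoint sfGFP fluorescence after 15 h at 30 °C calibrated as µM FITC. Round 3 ML-predicted PbrR mutants; up to 3 biological replicates.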

[2] = variants of: B1; experiment: sfGFP reporter fluorescence (15 h) (µM FITC); higher = stronger transcriptional activation; settings: library round: Round 3
Protocol: as §1

Variant	sfGFP reporter fluorescence [1]	sfGFP reporter fluorescence ([2]; ligand: 1 µM Pb)	sfGFP reporter fluorescence ([2]; ligand: 30 µM Zn)
DTKLGCDL Q121A	0.0413 ± 0.00047	0.101 ± 0.0031	0.103 ± 0.0093
DNVCMDDP V16C P61N	0.092 ± 0.0024	0.45 ± 0.015	0.463 ± 0.01
DTKLGDRR E109L	0.0416 ± 0.0019	0.103 ± 0.005	0.224 ± 0.0067
KNVLGDDR I90C H106A	0.0676 ± 0.0026	0.502 ± 0.032	0.74 ± 0.058
DSKLGAPW	0.043 ± 0.0014	0.138 ± 0.012	0.227 ± 0.025
DNVCMDDP Y41F P61N	0.828 ± 0.023	2.98 ± 0.34	2.92 ± 0.049
DNKCGAAY	1.05 ± 0.072	2.12 ± 0.14	2.26 ± 0.041
KFVLGDDA H106A	0.0507 ± 0.0013	0.541 ± 0.028	0.104 ± 0.0043
DTKLGSDP Q121A H142A	0.0408 ± 0.0014	0.106 ± 0.0044	0.472 ± 0.015
DNRCMDAK D87E	1.06 ± 0.069	2.46 ± 0.12	2.56 ± 0.13
DTKIGDDP V108L E112A	0.0428 ± 0.0025	0.094 ± 0.0043	0.294 ± 0.03
KNVCGDDP M60L P61S	1.34 ± 0.11	3.29 ± 0.12	2.58 ± 0.36
LILCGAAP V16C H54C C55P H106A	0.0465 ± 0.0014	0.0436 ± 0.0014	0.0502 ± 0.002
DNRCIDDP M60L P61N	0.808 ± 0.044	1.53 ± 0.025	2.29 ± 0.32
DNRCIDAK	0.674 ± 0.12	1.93 ± 0.22	2.51 ± 0.34
DSKLGNRA Q121A	0.044 ± 0.0012	0.209 ± 0.008	0.945 ± 0.054
DNKLHAPW L101V	0.06686 ± 0.00034	0.307 ± 0.028	1.11 ± 0.06
LILCGAAC V16C H54C C55P E81A H106A	0.0437 ± 0.0031	0.0414 ± 0.0022	0.0463 ± 0.0019
KNVCMDDP V16C	1.32 ± 0.056	3.46 ± 0.1	3.28 ± 0.18
DNVCIDDA M60L	0.73 ± 0.014	2.2 ± 0.24	2.23 ± 0.2
LILCGAAC V16C H54C C55P H106A	0.0452 ± 0.0039	0.0421 ± 0.0021	0.0492 ± 0.0021
DTKLGCDA Q121A	0.0408 ± 0.00071	0.107 ± 0.0045	0.117 ± 0.0042
KNKCGADP M60L P61N	2.59 ± 0.17	2.95 ± 0.29	2.51 ± 0.32

Variant	sfGFP reporter fluorescence [1]	sfGFP reporter fluorescence ([2]; ligand: 1 µM Pb)	sfGFP reporter fluorescence ([2]; ligand: 30 µM Zn)
DTKCIDAK	0.305 ± 0.035	1.87 ± 0.27	2.86 ± 0.33
KNVCMDDP V16C P61N	0.0997 ± 0.0099	0.636 ± 0.067	0.579 ± 0.061
DTKLGMAP V108L	0.0403 ± 0.00095	0.0673 ± 0.0042	0.288 ± 0.018
ENKCMDAK	0.33 ± 0.045	1.43 ± 0.15	2.44 ± 0.15
KNVCMDDP E81A	2.21 ± 0.21	3.01 ± 0.4	2.71 ± 0.34
DNKCGADY M60L	1.36 ± 0.092	1.92 ± 0.1	2.58 ± 0.11
DSKLGHPY	0.0395 ± 0.00071	0.112 ± 0.007	0.234 ± 0.033
KNKLGDAP P61N L62I V108E	0.0795 ± 0.0049	0.275 ± 0.019	1.08 ± 0.098
DNVLGDDY H54A H142C	0.0421 ± 0.0015	0.0519 ± 0.0017	0.136 ± 0.0031
KNKCMDDP M60L P61D	3.01 ± 0.32	3.17 ± 0.26	3.28 ± 0.24
KIVCMDDP	0.424 ± 0.064	1.96 ± 0.25	1.78 ± 0.059
DNKCGSAY	0.873 ± 0.033	2.1 ± 0.24	2.35 ± 0.2
DTKLGSPP V108L Q121A	0.0413 ± 0.00089	0.2 ± 0.0066	0.337 ± 0.004
LIVCGAAP H54C C55P H106L	0.0444 ± 0.0015	0.0432 ± 0.00085	0.0495 ± 0.0022
KNKCTDDP M60L P61N	2.34 ± 0.2	3.48 ± 0.11	3.2 ± 0.18
DNKCGAAP H54C C55A	0.912 ± 0.075	1.67 ± 0.091	1.92 ± 0.15
DTKLGSDP V108L H142A	0.0396 ± 0.00089	0.076 ± 0.0048	0.278 ± 0.029
DNRCGAAP	1.21 ± 0.066	2.35 ± 0.047	2.34 ± 0.039
DNKCGAAP H54C C55P H106L	0.04838 ± 0.00034	0.0446 ± 0.0014	0.0485 ± 0.0037
DNKCMDAK P61N	2.25 ± 0.34	2.76 ± 0.33	3.11 ± 0.2
DNKCMDAK P61D	0.53 ± 0.072	0.903 ± 0.12	2.24 ± 0.45
KCVCMDDP V16C	0.185 ± 0.012	1.75 ± 0.16	0.434 ± 0.039
DTKCMDAP G124A	0.212 ± 0.015	1.58 ± 0.084	2.41 ± 0.38

Variant	sfGFP reporter fluorescence [1]	sfGFP reporter fluorescence ([2]; ligand: 1 µM Pb)	sfGFP reporter fluorescence ([2]; ligand: 30 µM Zn)
KNVCGADP M60L	3.05 ± 0.41	3.59 ± 0.26	3.01 ± 0.067
DNKLGDDP	0.0412 ± 0.002	0.0516 ± 0.0024	0.416 ± 0.055
DTKLGDAL Q121A	0.04099 ± 0.00034	0.104 ± 0.004	0.329 ± 0.015
DTKLGSRP V108L	0.0395 ± 0.0015	0.117 ± 0.0088	0.28 ± 0.012
DTKLGHPY Q121A	0.0423 ± 0.0015	0.206 ± 0.019	0.289 ± 0.021
DNRLGAPL	0.0656 ± 0.0041	0.262 ± 0.0096	0.905 ± 0.11
DTKLGSPP Q121A	0.0408 ± 0.0027	0.186 ± 0.0074	0.3204 ± 0.0016
KNVCMDDP M60L P61N	0.987 ± 0.13	2.86 ± 0.2	2.86 ± 0.26
DTKLGAPL Q121A	0.0458 ± 0.0015	0.245 ± 0.019	0.407 ± 0.017
DVVLGDDR H106A	0.043 ± 0.0021	0.126 ± 0.007	0.0489 ± 0.0029
KNICMDDP M60L	2.28 ± 0.1	3.14 ± 0.26	3.216 ± 0.027
KTVLIDDP P61T	0.0467 ± 0.002	0.106 ± 0.0053	0.251 ± 0.023
DTKCGSAP	0.21 ± 0.0021	1.43 ± 0.041	2.22 ± 0.1
KFVLGDDP P61T H106A	0.0442 ± 0.0014	0.0637 ± 0.0021	0.0488 ± 0.0034
KITLGDDR H106A	0.046 ± 0.001	0.452 ± 0.026	0.0503 ± 0.0012
DSKLGMAP V108L	0.043	0.0646 ± 0.004	0.354 ± 0.015
DTKLGCDP V108L Q121A	0.043 ± 0.0018	0.117 ± 0.0039	0.116 ± 0.0027
KNVCMDDP M60L	3.21 ± 0.26	3.58 ± 0.098	3.18 ± 0.16
DNKCIDAK M84A G124A	0.548 ± 0.043	2.01 ± 0.13	2.75 ± 0.23
DNRCMDAK	1.49 ± 0.11	2.51 ± 0.053	2.61 ± 0.05
DNKLGAPY V133A	0.0571 ± 0.00067	0.174 ± 0.0037	0.728 ± 0.029
KNVCIDDP M60L P61N	0.453 ± 0.036	1.86 ± 0.087	2.32 ± 0.15
KFVLGDDR H106N	0.0633 ± 0.0012	1.16 ± 0.054	0.2633 ± 0.0014

Variant	sfGFP reporter fluorescence [1]	sfGFP reporter fluorescence ([2]; ligand: 1 µM Pb)	sfGFP reporter fluorescence ([2]; ligand: 30 µM Zn)
KIVLGDDR H106E	0.0556 ± 0.0015	0.573 ± 0.037	0.0612 ± 0.0023
TTKCGDRP	1.83 ± 0.057	2.37 ± 0.091	2.74 ± 0.22
DTKLGSPL	0.0411 ± 0.0014	0.1583 ± 0.0015	0.196 ± 0.019
DTKCGAAP	0.264 ± 0.019	1.56 ± 0.061	2.21 ± 0.16
KNKCSDDP M60L P61N	2.09 ± 0.17	3.3 ± 0.17	3.18 ± 0.21
KNKCIDDP M60L P61N	1.99 ± 0.26	3.23 ± 0.31	2.88 ± 0.25
DTKLGAPW Q121A	0.0438 ± 0.0019	0.216 ± 0.0053	0.277 ± 0.013
DSKLGSPP V108L	0.0407 ± 0.0012	0.121 ± 0.0045	0.247 ± 0.0044
KNVLMDDP M60L P61N	0.606 ± 0.027	1.64 ± 0.097	2.45 ± 0.11
NNKCMDDP M60L P61N	2.66 ± 0.24	3.55 ± 0.13	3.4 ± 0.14
DTKLGAPW V108L	0.0408 ± 0.002	0.146 ± 0.0032	0.1781 ± 0.0015
DNRCIDAK G124A	0.395 ± 0.042	1.51 ± 0.12	2.32 ± 0.17
LIKCGAAP H54C C55P H106L	0.0448 ± 0.0034	0.0419 ± 0.0013	0.0486 ± 0.0017
DTKCIDAP I125L	0.059 ± 0.0049	0.0617 ± 0.0061	0.614 ± 0.022
DNKCMDAK G124A	0.531 ± 0.049	2.11 ± 0.15	2.65 ± 0.21
TIVLGDDR H106A	0.0524 ± 0.0029	0.448 ± 0.023	0.0673 ± 0.0027
KNMCMDDP P61N	1.45 ± 0.17	2.43 ± 0.21	2.66 ± 0.22
LNKCGAAP H54C C55P H106L	0.0467 ± 0.0041	0.044 ± 0.0032	0.0477 ± 0.0034
KNVEGDDP M60L P61N	0.043 ± 0.00089	0.0385 ± 0.00085	0.047 ± 0.0012
KIVLGDDR L62I	0.0483 ± 0.0021	0.453 ± 0.018	0.09962 ± 0.00071
